The target of test [1] is Purified recombinant PKM2 (UniProt P52480). Description: native gel or EMSA; blue native PAGE of purified recombinant PKM2 mixed with natural products (vindoline, pyridoxine and others); tetramer to dimers.
Test [2] concerns the target PKM2 (mouse (endogenous in primary astrocytes and striatum)) (UniProt P52480). Nature of the test: native gel or EMSA; blue native PAGE (8%, 4 °C) of digitonin lysates of primary astrocytes, immunoblot for PKM2; tetramer to dimers; cells treated with quinpirole, DASA-58, PTX, β-arrestin siRNA, pyridoxine. On the technique in general: Mobility shift assays separate free from complexed probe on a gel.

Test [3] has the same target. Description: native gel or EMSA; blue native PAGE of striatum of Drd2 flox/flox and Drd2 hGFAPcKO mice after 5 mg/kg quinpirole or pyridoxine for 7 days, immunoblot for PKM2; tetramer to dimers.

In article PMC7029000 one finds stoichiometry N data, which are given here for 2 substances.

Values joined by “and” are separate entries in the source; they are usually repeats but may differ in a detail not shown here. Identical values can stand only once.

PKM2, P52480 1-531 (enzyme; other documents disagree on this pair), sequence (P52480 whole entry): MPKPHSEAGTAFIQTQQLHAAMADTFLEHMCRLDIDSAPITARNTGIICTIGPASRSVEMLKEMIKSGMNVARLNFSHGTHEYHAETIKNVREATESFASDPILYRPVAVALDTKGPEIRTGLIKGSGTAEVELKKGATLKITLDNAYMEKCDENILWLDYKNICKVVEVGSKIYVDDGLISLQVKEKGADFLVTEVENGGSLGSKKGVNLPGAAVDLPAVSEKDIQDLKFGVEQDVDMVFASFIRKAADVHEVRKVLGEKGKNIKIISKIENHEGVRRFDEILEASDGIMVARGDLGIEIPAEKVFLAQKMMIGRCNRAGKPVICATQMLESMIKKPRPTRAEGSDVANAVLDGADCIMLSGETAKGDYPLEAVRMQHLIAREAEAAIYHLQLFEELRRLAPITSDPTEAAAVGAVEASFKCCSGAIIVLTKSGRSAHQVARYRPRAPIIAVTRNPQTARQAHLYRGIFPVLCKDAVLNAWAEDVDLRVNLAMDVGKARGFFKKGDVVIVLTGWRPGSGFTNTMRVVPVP
Purified recombinant PKM2, P52480 1-531 (enzyme; other documents disagree on this pair), sequence (P52480 whole entry): as above

Take “Purified recombinant PKM2, P52480 1-531 (enzyme; other documents disagree on this pair)”: the stoichiometry N (in general, a count of units in the complex or per binding partner) in test [1] is 2 and 4.
In the case of “PKM2, P52480 1-531 (enzyme; other documents disagree on this pair)”, the stoichiometry N in test [2] is 4 and 2; in test [3], 2 and 4.
